Assay results: paper PMC11790920 (Nature Communications, 2025)

Molecular target: T1, eukaryotic translation elongation factor 1A (eEF1A), native, full length (S. cerevisiae, UniProt P02994 1-458)
T1 sequence (looked up): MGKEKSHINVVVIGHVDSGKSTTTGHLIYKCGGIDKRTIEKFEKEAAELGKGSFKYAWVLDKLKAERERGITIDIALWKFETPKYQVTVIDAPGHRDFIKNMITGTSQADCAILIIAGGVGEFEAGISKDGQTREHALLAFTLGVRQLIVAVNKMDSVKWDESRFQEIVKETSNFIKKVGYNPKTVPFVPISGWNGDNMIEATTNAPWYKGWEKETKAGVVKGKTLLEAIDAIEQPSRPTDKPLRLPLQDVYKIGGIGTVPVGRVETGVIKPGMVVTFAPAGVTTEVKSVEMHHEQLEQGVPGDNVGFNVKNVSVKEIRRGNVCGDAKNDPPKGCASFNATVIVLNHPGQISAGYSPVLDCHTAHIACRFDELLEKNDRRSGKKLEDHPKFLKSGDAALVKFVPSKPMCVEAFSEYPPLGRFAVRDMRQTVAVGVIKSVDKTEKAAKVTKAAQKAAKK
Assay: pull-down

binding result: binds
B1: recombinant Ypl225w-3xFLAG (natural protein, S. cerevisiae, UniProt Q08971 1-146, looked up)
chain: MSTFNAETADNLEDIEKQFAVVAVEQAETYWKLLTSVPGSKLRLTKFDDEIYENFMERFPEYKDVERVKKFTEEELKTKEAKERWRKFFTIFEKKIEDYNFGTLLRTDASAEYGQFTTCFVVRLQFYAFEIARNKHGLNDWIVGQK
